In article PMC7584627:

Target: LuS-N71-SpyTag (Aquifex aeolicus)
Assay: SDS-PAGE of the covalent conjugate, band intensities

With SARS-CoV-2 spike-SpyCatcher the percent of nanoparticle subunit conjugated was 91%.
